This note sets out measurements from paper PMC10602884, “Distinct RPA functions promote eukaryotic DNA replication initiation and elongation”.

Data set [1] deals with Pol-alpha/primase (UniProt P13382;P38121;P20457;P10363 1-1468;1-705;1-528;1-409). Put plainly: fluorescence anisotropy; DNA pre-bound with equimolar (2.5 nM) RPA-deltaOB-F (P8); matches naked DNA; 30 mM HEPES pH 7.5, 30 mM NaCl, 0.25 mM EDTA, 10% glycerol, 0.01% NP-40, 1 mM DTT, plus 0.5 M NaCl for dT30 (no supplemental NaCl for dT60), 2.5 nM DNA, room temperature, 30 min. As to conditions: protein: recombinant; copies: 1;1;1;1; label: 6-FAM; single strand.

The target in data set [2] is T1, Gp32 (T4 bacteriophage, UniProt P03695 1-301).
T1 sequence: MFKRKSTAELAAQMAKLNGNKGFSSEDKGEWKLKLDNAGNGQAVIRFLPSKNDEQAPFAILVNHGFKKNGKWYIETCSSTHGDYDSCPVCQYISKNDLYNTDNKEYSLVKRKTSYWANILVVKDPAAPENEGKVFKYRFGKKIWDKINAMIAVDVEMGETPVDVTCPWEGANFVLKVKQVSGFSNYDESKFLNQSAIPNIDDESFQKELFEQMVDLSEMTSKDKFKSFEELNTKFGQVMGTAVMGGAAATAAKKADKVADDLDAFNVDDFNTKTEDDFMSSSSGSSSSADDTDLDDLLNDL
Put plainly: fluorescence anisotropy; 0.5 M NaCl; apparent Kd, Hill fit; 30 mM HEPES pH 7.5, 30 mM NaCl, 0.25 mM EDTA, 10% glycerol, 0.01% NP-40, 1 mM DTT, plus 0.5 M NaCl for dT30 (no supplemental NaCl for dT60), 2.5 nM DNA, room temperature, 30 min. As to conditions: protein: commercial; label: 6-FAM; single strand.

The target in data set [3] is RPA-deltaOB-F-deltaWH (Saccharomyces cerevisiae, UniProt P22336;P26754;P26755 131-621;1-202;1-122). The description is as above. As to conditions: protein: recombinant; tags: CBP on Rfa1; 3xFlag on Rfa2; copies: 1;1;1; label: 6-FAM; single strand.
Data set [4] deals with EcSSB (Escherichia coli, UniProt P0AGE0 1-178). The data set is described as above. As to conditions: protein: commercial; chain copies: 4; label: 6-FAM; single strand.
Data set [5] addresses RPA-Tri-C (OB-C/D/E) (Saccharomyces cerevisiae, UniProt P22336;P26754;P26755 442-621;32-182;1-122). The data set is described as above. As to conditions: protein: recombinant; tags: Rfa2 C-terminal MxeGyrA intein-CBD-6xHis (in expression construct); copies: 1;1;1; label: 6-FAM; single strand.
In data set [6] the target is RPA (CBP-Rfa1, Rfa2, Rfa3) (Saccharomyces cerevisiae, UniProt P22336;P26754;P26755 1-621;1-273;1-122). The experiment in a line: fluorescence anisotropy; 0.5 M NaCl; apparent Kd, Hill coefficient 2.460; 30 mM HEPES pH 7.5, 30 mM NaCl, 0.25 mM EDTA, 10% glycerol, 0.01% NP-40, 1 mM DTT, plus 0.5 M NaCl for dT30 (no supplemental NaCl for dT60), 2.5 nM DNA, room temperature, 30 min. As to conditions: protein: recombinant; tags: CBP on Rfa1; copies: 1;1;1; label: 6-FAM; single strand. In general terms: Fluorescence polarisation rises when a labelled molecule tumbles more slowly, as on binding a larger partner.

Sequence of RPA-Tri-C (OB-C/D/E) (P22336 442-621, chain 1 of 3): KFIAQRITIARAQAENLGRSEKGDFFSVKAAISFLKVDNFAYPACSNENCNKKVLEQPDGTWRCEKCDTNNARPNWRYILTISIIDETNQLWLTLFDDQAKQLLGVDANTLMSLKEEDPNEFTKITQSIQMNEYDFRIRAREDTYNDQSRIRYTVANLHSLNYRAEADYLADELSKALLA
Sequence of RPA-Tri-C (OB-C/D/E) (P26754 32-182, chain 2 of 3): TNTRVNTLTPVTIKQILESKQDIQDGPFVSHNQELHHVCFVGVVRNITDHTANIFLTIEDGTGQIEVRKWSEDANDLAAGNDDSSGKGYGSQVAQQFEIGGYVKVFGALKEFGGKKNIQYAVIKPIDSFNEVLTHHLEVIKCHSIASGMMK
Sequence of RPA-Tri-C (OB-C/D/E) (P26755 whole entry, chain 3 of 3): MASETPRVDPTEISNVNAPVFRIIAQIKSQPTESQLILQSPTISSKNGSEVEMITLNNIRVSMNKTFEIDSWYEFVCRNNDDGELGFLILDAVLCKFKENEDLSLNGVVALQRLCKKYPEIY
Sequence of EcSSB (P0AGE0 whole entry): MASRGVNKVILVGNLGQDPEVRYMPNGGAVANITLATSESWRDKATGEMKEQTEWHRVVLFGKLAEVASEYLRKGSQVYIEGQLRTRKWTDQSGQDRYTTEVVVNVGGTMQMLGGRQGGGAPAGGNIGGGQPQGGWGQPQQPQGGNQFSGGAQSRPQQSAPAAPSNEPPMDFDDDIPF
Sequence of Pol-alpha/primase (P13382 whole entry, chain 1 of 4): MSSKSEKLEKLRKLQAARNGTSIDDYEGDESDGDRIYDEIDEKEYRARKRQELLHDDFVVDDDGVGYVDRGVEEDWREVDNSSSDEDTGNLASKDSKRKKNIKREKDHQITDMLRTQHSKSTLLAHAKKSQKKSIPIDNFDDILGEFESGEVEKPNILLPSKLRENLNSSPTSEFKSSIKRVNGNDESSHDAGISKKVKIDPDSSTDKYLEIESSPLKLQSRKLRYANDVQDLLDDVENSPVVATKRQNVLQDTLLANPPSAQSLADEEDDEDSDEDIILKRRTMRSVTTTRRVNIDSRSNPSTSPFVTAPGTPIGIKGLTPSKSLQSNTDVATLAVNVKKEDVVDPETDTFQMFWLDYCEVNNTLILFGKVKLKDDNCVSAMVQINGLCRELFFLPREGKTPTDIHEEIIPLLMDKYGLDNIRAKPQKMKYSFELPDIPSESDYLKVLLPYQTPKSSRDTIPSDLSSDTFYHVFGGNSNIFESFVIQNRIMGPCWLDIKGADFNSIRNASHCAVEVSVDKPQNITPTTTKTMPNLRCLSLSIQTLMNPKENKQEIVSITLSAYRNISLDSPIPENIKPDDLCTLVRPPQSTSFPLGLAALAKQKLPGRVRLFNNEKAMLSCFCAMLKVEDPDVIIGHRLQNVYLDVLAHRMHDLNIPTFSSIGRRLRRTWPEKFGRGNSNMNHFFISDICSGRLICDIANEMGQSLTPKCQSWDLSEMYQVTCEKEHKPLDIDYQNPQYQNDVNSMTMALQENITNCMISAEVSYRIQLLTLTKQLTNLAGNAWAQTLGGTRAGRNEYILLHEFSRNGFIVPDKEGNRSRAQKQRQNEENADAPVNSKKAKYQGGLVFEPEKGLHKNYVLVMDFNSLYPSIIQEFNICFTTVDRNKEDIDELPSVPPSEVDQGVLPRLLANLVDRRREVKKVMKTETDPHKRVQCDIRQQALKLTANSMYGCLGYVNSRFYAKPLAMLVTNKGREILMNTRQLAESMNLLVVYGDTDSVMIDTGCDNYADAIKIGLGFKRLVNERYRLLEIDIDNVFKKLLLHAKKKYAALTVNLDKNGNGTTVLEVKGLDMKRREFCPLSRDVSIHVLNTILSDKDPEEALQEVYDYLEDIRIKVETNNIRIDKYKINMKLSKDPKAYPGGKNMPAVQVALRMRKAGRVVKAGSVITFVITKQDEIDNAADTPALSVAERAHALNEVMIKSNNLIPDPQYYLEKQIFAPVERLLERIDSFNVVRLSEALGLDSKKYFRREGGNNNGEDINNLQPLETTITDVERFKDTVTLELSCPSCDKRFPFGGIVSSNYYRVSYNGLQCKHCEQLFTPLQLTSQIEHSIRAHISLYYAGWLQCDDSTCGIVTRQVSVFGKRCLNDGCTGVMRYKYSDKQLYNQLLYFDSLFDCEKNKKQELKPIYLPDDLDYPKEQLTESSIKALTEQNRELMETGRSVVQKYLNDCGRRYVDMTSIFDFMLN
Sequence of Pol-alpha/primase (P38121 whole entry, chain 2 of 4): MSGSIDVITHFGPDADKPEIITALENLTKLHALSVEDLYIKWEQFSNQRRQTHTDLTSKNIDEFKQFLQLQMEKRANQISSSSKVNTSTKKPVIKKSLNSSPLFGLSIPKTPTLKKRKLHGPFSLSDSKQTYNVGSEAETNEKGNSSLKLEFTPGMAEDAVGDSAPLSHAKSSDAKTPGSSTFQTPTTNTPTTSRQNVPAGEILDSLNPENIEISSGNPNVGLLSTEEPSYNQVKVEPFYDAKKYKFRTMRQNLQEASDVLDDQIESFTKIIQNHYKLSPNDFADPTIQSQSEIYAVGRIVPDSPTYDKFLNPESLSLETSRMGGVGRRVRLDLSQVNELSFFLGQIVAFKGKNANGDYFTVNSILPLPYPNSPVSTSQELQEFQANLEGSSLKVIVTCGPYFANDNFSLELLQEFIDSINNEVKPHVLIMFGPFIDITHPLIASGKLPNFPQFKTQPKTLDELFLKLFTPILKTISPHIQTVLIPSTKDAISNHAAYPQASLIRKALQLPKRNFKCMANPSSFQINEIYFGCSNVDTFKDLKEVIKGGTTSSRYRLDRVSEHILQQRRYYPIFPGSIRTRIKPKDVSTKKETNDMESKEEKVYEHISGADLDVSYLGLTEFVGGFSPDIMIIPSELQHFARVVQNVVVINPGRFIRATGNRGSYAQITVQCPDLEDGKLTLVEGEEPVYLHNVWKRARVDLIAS
Sequence of Pol-alpha/primase (P20457 whole entry, chain 3 of 4): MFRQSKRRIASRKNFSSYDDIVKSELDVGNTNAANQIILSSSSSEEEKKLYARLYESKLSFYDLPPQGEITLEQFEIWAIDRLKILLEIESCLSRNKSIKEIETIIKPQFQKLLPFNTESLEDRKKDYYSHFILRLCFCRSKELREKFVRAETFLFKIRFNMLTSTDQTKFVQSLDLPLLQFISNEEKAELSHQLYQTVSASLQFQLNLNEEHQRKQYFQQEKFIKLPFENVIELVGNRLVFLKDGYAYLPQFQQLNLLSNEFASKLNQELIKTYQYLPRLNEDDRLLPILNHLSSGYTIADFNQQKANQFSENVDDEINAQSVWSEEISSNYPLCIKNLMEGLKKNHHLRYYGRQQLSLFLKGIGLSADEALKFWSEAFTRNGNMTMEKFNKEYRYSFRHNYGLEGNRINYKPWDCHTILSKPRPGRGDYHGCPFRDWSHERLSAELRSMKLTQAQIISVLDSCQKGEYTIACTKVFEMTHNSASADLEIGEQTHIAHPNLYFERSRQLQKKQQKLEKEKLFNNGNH
Sequence of Pol-alpha/primase (P10363 whole entry, chain 4 of 4): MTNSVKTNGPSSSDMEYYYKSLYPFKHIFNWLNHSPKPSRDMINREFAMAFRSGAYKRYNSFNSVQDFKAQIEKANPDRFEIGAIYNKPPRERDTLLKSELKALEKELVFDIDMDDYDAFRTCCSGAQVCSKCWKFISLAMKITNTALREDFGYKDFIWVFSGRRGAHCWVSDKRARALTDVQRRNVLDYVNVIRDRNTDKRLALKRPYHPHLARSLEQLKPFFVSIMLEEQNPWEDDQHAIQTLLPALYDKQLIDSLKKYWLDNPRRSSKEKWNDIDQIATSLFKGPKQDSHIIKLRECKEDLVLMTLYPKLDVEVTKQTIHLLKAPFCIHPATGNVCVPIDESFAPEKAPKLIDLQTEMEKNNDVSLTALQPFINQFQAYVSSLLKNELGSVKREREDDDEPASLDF
Sequence of RPA-deltaOB-F-deltaWH (P22336 131-621, stated change not applied, chain 1 of 3): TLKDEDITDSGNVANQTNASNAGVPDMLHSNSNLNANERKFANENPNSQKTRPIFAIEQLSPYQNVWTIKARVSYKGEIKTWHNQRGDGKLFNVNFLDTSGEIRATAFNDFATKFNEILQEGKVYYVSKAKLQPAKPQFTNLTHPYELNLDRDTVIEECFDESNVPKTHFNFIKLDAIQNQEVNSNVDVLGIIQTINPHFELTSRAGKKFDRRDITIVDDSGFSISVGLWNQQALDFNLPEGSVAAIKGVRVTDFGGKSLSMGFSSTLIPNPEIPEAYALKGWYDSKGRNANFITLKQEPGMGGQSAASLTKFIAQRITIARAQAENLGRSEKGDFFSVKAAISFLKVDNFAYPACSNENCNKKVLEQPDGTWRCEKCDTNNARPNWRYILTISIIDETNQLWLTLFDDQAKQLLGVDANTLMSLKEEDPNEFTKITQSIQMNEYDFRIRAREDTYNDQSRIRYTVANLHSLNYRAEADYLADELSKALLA
Sequence of RPA-deltaOB-F-deltaWH (P26754 1-202, stated change not applied, chain 2 of 3): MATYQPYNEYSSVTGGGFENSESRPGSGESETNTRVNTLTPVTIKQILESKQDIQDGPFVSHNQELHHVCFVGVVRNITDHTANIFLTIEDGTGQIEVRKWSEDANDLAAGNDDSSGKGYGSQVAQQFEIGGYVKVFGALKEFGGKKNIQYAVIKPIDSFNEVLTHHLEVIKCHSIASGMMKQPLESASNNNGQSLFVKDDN
Sequence of RPA-deltaOB-F-deltaWH (P26755 whole entry, stated change not applied, chain 3 of 3): as the sequence (P26755 whole entry, chain 3 of 3) above

B1: 6-FAM-oligo-dT60 (ssDNA)
DNA: TTTTTTTTTTTTTTTTTTTTTTTTTTTTTTTTTTTTTTTTTTTTTTTTTTTTTTTTTTTT
Regarding B1, in data set [1], the binding result was “binds”.

Turning to TTTTTTTTTTTTTTTTTTTTTTTTTTTTTT (ssDNA) [6-FAM-oligo-dT30], the Kd is roughly 18 nM in data set [2]; roughly 2.04 nM in data set [3]; roughly 0.11 nM in data set [4]; roughly 2.97 nM in data set [5]; 1.73 nM in data set [6].
